# Measured values reported in US20140348819A1, “Methods of Treating Cancer” (Dana-Farber Cancer Institute, Inc., priority 2011, published 2014).
# B1: VEGF-C (protein, UniProt P49767 112-227, looked up)
# Vascular endothelial growth …: AHYNTEILKSIDNEWRKTQCMPREVCIDVGKEFGVATNTFFKPPCVSVYRCGGCCNSEGLQCMNTSTSYLSKTLFEITVPLSQGPKPVTISFANHTSCRCMSKLDVYRQVHSIIRR
# System: six V600E BRAF melanoma cell lines
# Experiment: Screening of recombinant RTK ligands for ability to confer resistance to BRAFi (PLX4720) or MEKi (PD184352) (Table 4)
# Assay type: cell-based, human
# Design: ability of recombinant RTK ligand to confer resistance / ability of recombinant RTK ligand to confer resistance (screening value): scale not given here
# Procedure: HGF is the only one that can substantially confer drug resistance to the cell lines.
# The complexity of the tumor microenvironment is much greater than an in vitro co-culture system. Therefore, the inventors explored whether the activation of other RTKs could result in a similar resistance as that observed with the activation of MET. To this end, six V600E BRAF melanoma cell lines were tested for their resistance to either BRAFi (PLX4720) or MEKi (PD184352) after the addition of 22 RTK ligands that have the potential of activating almost all known RTKs. […] The activation of a selected subset of these RTKs was confirmed by western blotting and by high throughput tyrosine kinase phosphorylation profiling.
molecule,measurement,setting,value
B1,ability of recombinant RTK ligand to confer resistance,"A2058, PD184352 - 1 uM, ligand 1.6 ng/ml",1.01
same,ability of recombinant RTK ligand to confer resistance,"A2058, PD184352 - 1 uM, ligand 6.25 ng/ml",1.02
same,ability of recombinant RTK ligand to confer resistance,"A2058, PD184352 - 1 uM, ligand 25 ng/ml",1.01
same,ability of recombinant RTK ligand to confer resistance,"A2058, PD184352 - 1 uM, ligand 100 ng/ml",0.99
same,ability of recombinant RTK ligand to confer resistance,"A2058, PD184352 - 1 uM, ligand 400 ng/ml",0.94
same,ability of recombinant RTK ligand to confer resistance,"A2058, PLX4720 - 2 uM, ligand 1.6 ng/ml",1.03
same,ability of recombinant RTK ligand to confer resistance,"A2058, PLX4720 - 2 uM, ligand 6.25 ng/ml",1.04
same,ability of recombinant RTK ligand to confer resistance,"A2058, PLX4720 - 2 uM, ligand 25 ng/ml",1.05
same,ability of recombinant RTK ligand to confer resistance,"A2058, PLX4720 - 2 uM, ligand 100 ng/ml",1.04
same,ability of recombinant RTK ligand to confer resistance,"A2058, PLX4720 - 2 uM, ligand 400 ng/ml",1.02
same,ability of recombinant RTK ligand to confer resistance,"C32, PD184352 - 1 uM, ligand 1.6 ng/ml",1.06
same,ability of recombinant RTK ligand to confer resistance,"C32, PD184352 - 1 uM, ligand 6.25 ng/ml",1.03
same,ability of recombinant RTK ligand to confer resistance,"C32, PD184352 - 1 uM, ligand 25 ng/ml",1.16
same,ability of recombinant RTK ligand to confer resistance,"C32, PD184352 - 1 uM, ligand 100 ng/ml",1.00
same,ability of recombinant RTK ligand to confer resistance,"C32, PD184352 - 1 uM, ligand 400 ng/ml",1.07
same,ability of recombinant RTK ligand to confer resistance,"C32, PLX4720 - 2 uM, ligand 1.6 ng/ml",0.94
same,ability of recombinant RTK ligand to confer resistance,"C32, PLX4720 - 2 uM, ligand 6.25 ng/ml",1.09
same,ability of recombinant RTK ligand to confer resistance,"C32, PLX4720 - 2 uM, ligand 25 ng/ml",1.06
same,ability of recombinant RTK ligand to confer resistance,"C32, PLX4720 - 2 uM, ligand 100 ng/ml",1.08
same,ability of recombinant RTK ligand to confer resistance,"C32, PLX4720 - 2 uM, ligand 400 ng/ml",1.08
same,ability of recombinant RTK ligand to confer resistance,"Colo 829, PD184352 - 1 uM, ligand 1.6 ng/ml",0.97
same,ability of recombinant RTK ligand to confer resistance,"Colo 829, PD184352 - 1 uM, ligand 6.25 ng/ml",1.02
same,ability of recombinant RTK ligand to confer resistance,"Colo 829, PD184352 - 1 uM, ligand 25 ng/ml",0.94
same,ability of recombinant RTK ligand to confer resistance,"Colo 829, PD184352 - 1 uM, ligand 100 ng/ml",0.95
same,ability of recombinant RTK ligand to confer resistance,"Colo 829, PD184352 - 1 uM, ligand 400 ng/ml",0.90
same,ability of recombinant RTK ligand to confer resistance,"Colo 829, PLX4720 - 2 uM, ligand 1.6 ng/ml",0.99
same,ability of recombinant RTK ligand to confer resistance,"Colo 829, PLX4720 - 2 uM, ligand 6.25 ng/ml",1.00
same,ability of recombinant RTK ligand to confer resistance,"Colo 829, PLX4720 - 2 uM, ligand 25 ng/ml",0.92
same,ability of recombinant RTK ligand to confer resistance,"Colo 829, PLX4720 - 2 uM, ligand 100 ng/ml",0.95
same,ability of recombinant RTK ligand to confer resistance,"Colo 829, PLX4720 - 2 uM, ligand 400 ng/ml",0.90
same,ability of recombinant RTK ligand to confer resistance,"G-361, PD184352 - 1 uM, ligand 1.6 ng/ml",0.97
same,ability of recombinant RTK ligand to confer resistance,"G-361, PD184352 - 1 uM, ligand 6.25 ng/ml",0.97
same,ability of recombinant RTK ligand to confer resistance,"G-361, PD184352 - 1 uM, ligand 25 ng/ml",0.91
same,ability of recombinant RTK ligand to confer resistance,"G-361, PD184352 - 1 uM, ligand 100 ng/ml",0.90
same,ability of recombinant RTK ligand to confer resistance,"G-361, PD184352 - 1 uM, ligand 400 ng/ml",0.89
same,ability of recombinant RTK ligand to confer resistance,"G-361, PLX4720 - 2 uM, ligand 1.6 ng/ml",1.01
same,ability of recombinant RTK ligand to confer resistance,"G-361, PLX4720 - 2 uM, ligand 6.25 ng/ml",0.97
same,ability of recombinant RTK ligand to confer resistance,"G-361, PLX4720 - 2 uM, ligand 25 ng/ml",0.92
same,ability of recombinant RTK ligand to confer resistance,"G-361, PLX4720 - 2 uM, ligand 100 ng/ml",0.88
same,ability of recombinant RTK ligand to confer resistance,"G-361, PLX4720 - 2 uM, ligand 400 ng/ml",0.85
same,ability of recombinant RTK ligand to confer resistance,"SK-MEL-5, PD184352 - 1 uM, ligand 1.6 ng/ml",0.97
same,ability of recombinant RTK ligand to confer resistance,"SK-MEL-5, PD184352 - 1 uM, ligand 6.25 ng/ml",0.36
same,ability of recombinant RTK ligand to confer resistance,"SK-MEL-5, PD184352 - 1 uM, ligand 25 ng/ml",0.96
same,ability of recombinant RTK ligand to confer resistance,"SK-MEL-5, PD184352 - 1 uM, ligand 100 ng/ml",0.98
same,ability of recombinant RTK ligand to confer resistance,"SK-MEL-5, PD184352 - 1 uM, ligand 400 ng/ml",0.33
same,ability of recombinant RTK ligand to confer resistance,"SK-MEL-5, PLX4720 - 2 uM, ligand 1.6 ng/ml",0.95
same,ability of recombinant RTK ligand to confer resistance,"SK-MEL-5, PLX4720 - 2 uM, ligand 6.25 ng/ml",0.83
same,ability of recombinant RTK ligand to confer resistance,"SK-MEL-5, PLX4720 - 2 uM, ligand 25 ng/ml",0.87
same,ability of recombinant RTK ligand to confer resistance,"SK-MEL-5, PLX4720 - 2 uM, ligand 100 ng/ml",0.92
same,ability of recombinant RTK ligand to confer resistance,"SK-MEL-5, PLX4720 - 2 uM, ligand 400 ng/ml",0.85
same,ability of recombinant RTK ligand to confer resistance,"SK-MEL-28, PD184352 - 1 uM, ligand 1.6 ng/ml",1.09
same,ability of recombinant RTK ligand to confer resistance,"SK-MEL-28, PD184352 - 1 uM, ligand 6.25 ng/ml",0.95
same,ability of recombinant RTK ligand to confer resistance,"SK-MEL-28, PD184352 - 1 uM, ligand 25 ng/ml",0.90
same,ability of recombinant RTK ligand to confer resistance,"SK-MEL-28, PD184352 - 1 uM, ligand 100 ng/ml",1.08
same,ability of recombinant RTK ligand to confer resistance,"SK-MEL-28, PD184352 - 1 uM, ligand 400 ng/ml",0.85
same,ability of recombinant RTK ligand to confer resistance,"SK-MEL-28, PLX4720 - 2 uM, ligand 1.6 ng/ml",1.05
same,ability of recombinant RTK ligand to confer resistance,"SK-MEL-28, PLX4720 - 2 uM, ligand 6.25 ng/ml",0.94
same,ability of recombinant RTK ligand to confer resistance,"SK-MEL-28, PLX4720 - 2 uM, ligand 25 ng/ml",0.98
same,ability of recombinant RTK ligand to confer resistance,"SK-MEL-28, PLX4720 - 2 uM, ligand 100 ng/ml",1.01
same,ability of recombinant RTK ligand to confer resistance,"SK-MEL-28, PLX4720 - 2 uM, ligand 400 ng/ml",0.89
